Data as given in article PMC8922439.

Columns and labels:
[1] = target: mRNA-expressed CH848 10.17DT DS SOSIP trimer (HIV-1 (CH848 10.17)); assay: SEC
[2] = target: mRNA-expressed CH848 10.17DT SOSIPv4.1 trimer (HIV-1 (CH848 10.17)); assay: SEC

Substance “mRNA-expressed CH848 10.17DT DS SOSIP trimer (domain or fragment)” has a stoichiometry N [1] of 3.

With “mRNA-expressed CH848 10.17DT SOSIPv4.1 trimer (domain or fragment)” the stoichiometry N [2] was 3.
